3 compounds from US10253087B2, “CCR2 antagonist peptides” (UNIVERSITE PIERRE ET MARIE CURIE (Paris 6), priority 2011, dated 2019) can be followed below.

Entries after “also recorded” stand apart in the source; their conditions may differ. Like-named read-outs stand apart in the source and are kept apart here. Non-standard residues stand in square brackets, D forms with d. Residues, ends and D or L forms follow the SMILES beside them.

The target of one series is T1, CCR5 (Homo sapiens, UniProt P51681).
T1 construct: expressed in transfected cells
Put plainly: Migration assay, HEK-CCR5 induced by CCL5. The class given is cell-based. To be noted: up to 500 μM. The protocol:
(§1) Migration assays were performed in 24-transwell inserts (Corning Costar Avon, France) with 8 μm polycarbonate filter for HEK or CHO cells and 5 μm for MBMC. […] The bottom of each well was filled with 600 μL pre-warmed chemotaxis buffer at indicated chemokine concentration. The plates were then incubated for 4 hours at 37° C. in a 5% CO2 atmosphere. […] Before counting the cells by flow cytometry, mouse leukocytes were immunophenotyped with a mix of fluorescent antibodies (anti-mouse Ly6G-PE, anti-mouse NK1.1-PE, anti-mouse […], anti-mouse 7/4-FITC, BD Biosciences) and HEK expressing chemokine receptors with appropriate fluorescent anti-human chemokine receptor. Data were analysed with FlowJo software and results are expressed as a number of cells migrating in the presence or in the absence of chemoattractant. Experiments were run in triplicate, and results are representative of at least three independent experiments.

Series [1] concerns HEK-CCR2.
In the next series the target is T2, CX3CR1 (Homo sapiens, UniProt P49238).
T2 construct: expressed in transfected cells
T2 sequence (P49238 1-355): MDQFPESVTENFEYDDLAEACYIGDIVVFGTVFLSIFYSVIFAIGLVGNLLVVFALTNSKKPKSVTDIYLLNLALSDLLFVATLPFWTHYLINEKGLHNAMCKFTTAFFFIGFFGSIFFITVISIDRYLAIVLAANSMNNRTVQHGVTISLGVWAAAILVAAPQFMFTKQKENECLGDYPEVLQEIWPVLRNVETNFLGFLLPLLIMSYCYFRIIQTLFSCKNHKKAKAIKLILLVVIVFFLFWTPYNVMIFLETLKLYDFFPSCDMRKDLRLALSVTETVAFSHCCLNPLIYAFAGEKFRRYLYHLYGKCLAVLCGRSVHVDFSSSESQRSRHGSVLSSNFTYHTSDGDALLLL
Put plainly: Migration assay, HEK-CX3CR1 induced by CX3CL1. The class given is cell-based. To be noted: up to 500 μM. How it is done:
as §1

The target in series [2] is T3, CCR2 (Homo sapiens, UniProt P41597).
T3 construct: expressed in transfected cells
Put plainly: Migration assay, HEK-CCR2 induced by CCL2. It counts as cell-based. To be noted: up to 500 μM. The protocol: as §1

In another series the test system is mouse monocytes. Put plainly: Migration assay, mouse monocytes / leukocytes (MBMC). It counts as cell-based. To be noted: up to 500 μM. The protocol: as §1
Series [3] concerns the target T3, CCR2. Put plainly: Calcium flux assay, CCL2-induced calcium release on HEK-CCR2. The class given is cell-based. How it is done:
Cytosolic-free calcium assay was measured by fluorescent detection with the HitHunter™ Calcium No WashPLUS (Ca NWPLUS) assay kit (DiscoveRex, #90-0091). Briefly, HEK or CHO expressing the chemokine receptor of interest (5.104) were plated overnight at 37° C., 5% CO2 before pre-loading with a calcium sensitive dye (Ca NWPLUS working reagent) supplemented with probenecid (Sigma-Aldrich, #P8761) to avoid calcium dye leakage from the cells, for 1 h at 37° C. Cells were then treated with control buffer or peptides at various concentrations and appropriate agonist. Signal was measured as function of time on a fluorescent plate reader equipped with fluidic handling (FlexStation 3, Molecular Devices). Maximum change in fluorescence over baseline (peak signal) was used to determine agonist response, as quantified using SoftMax Pro software. All experiments were run in triplicate, and results are representative of at least three independent experiments.
(In general: A change in cytosolic calcium serves as a functional read-out for many receptors and channels.)

Series [4] has as its target T3, CCR2. Put plainly: Radioligand binding assay, I125-CCL2 on HEK-CCR2. The conditions noted are these: competition binding. The protocol:
Binding assay was carried out using I125-CCL2 (specific activity 2200 Ci/mmol; Perkin elmer, inc.). 300.000 HEK cells stably expressing CCR2 and native cells were incubated with I125-CCL2 in the presence or absence of recombinant human CCL2 (10 nM or 100 nM) or ECL1 (C) inverso (1-10-30 μM) in 200 μl buffer (PBS containing 0.5% BSA and 0.01% HEPES). After 1 h incubation at 37° C., cells were washed three times with 1 ml of cold washing solution. Gamma emissions were then counted in the cell pellet with gamma counter. Non-specific binding represented less than 15% of total binding and was subtracted from total binding to define specific I125-CCL2 binding.

The target of series [5] is T3, CCR2. Put plainly: CCL2-Alexa 647 binding assay on HEK-CCR2. To be noted: competition binding. How it is done: Binding was performed with the same cells. 200.000 cells were pre-incubated for 30 minutes at 4° C. in 100 μl buffer (PBS containing 0.5% BSA, 0.2% EDTA and NaN3 0.01%) with recombinant human CCL2 (50 nM, 100 nM and 500 nM), ECL1 (C) inverso (11.3 μM, 28.2 μM and 56.3 μM) or with buffer. After, 50 nM CCL2-alexa 647 (Almac) were add for 30 minutes at 4° C. and washed three times with 1 ml of cold buffer. Cells were incubated with 10 μl anti-human-CCR2 (BD pharmingen) for 30 minutes at 4° C. in the dark and washed three times with 1 ml of cold buffer. Cells and beads were counted on FACSCalibur flow cytometer and data were analysed with FlowJo software.

Series [6] concerns the target T3, CCR2. The experiment in a line: β-arrestin recruitment assay (PathHunter), CCL2-induced. The class given is cell-based. To be noted: HEK-CCR2. The protocol:
Recruitment of β-arrestin in live cells was measured by chemoluminescence detection with the PathHunter™ eXpress β-Arrestin assay kit (DiscoveRex, #93-00446E1). Briefly, 100 μL PathHunter eXpress cells were expressing CCR2 were plated on a 96-well tissue culture treated plate for 48 hours at 37° C., 5% CO2. Cells were first incubated with ECL1 (C) inverso or control peptide and before adding 10 μL of the agonist, CCL2 diluted in OCC medium to achieve the EC80 determined beforehand or with OCC medium alone, for respectively 60 and 90 min at 37° C., 5% CO2. The reaction was stopped by adding 55 μL of the Working Detection Reagent Solution (PathHunter detection reagent) for 90 min at Room temperature. Chemoluminescent signal was read on a luminescent plate reader (TriStar LB 941, Berthold Technologies, Thoiry, France). Assays were run in triplicates.
(In general: Arrestin recruitment assays detect the binding of arrestin to an activated receptor.)

Series [7] deals with HEK-CCR2. Put plainly: Cytotoxicity on HEK-CCR2. To be noted: 4 hours of incubation at 37° C., 5% CO2, various concentrations.

T3 sequence (P41597 whole entry): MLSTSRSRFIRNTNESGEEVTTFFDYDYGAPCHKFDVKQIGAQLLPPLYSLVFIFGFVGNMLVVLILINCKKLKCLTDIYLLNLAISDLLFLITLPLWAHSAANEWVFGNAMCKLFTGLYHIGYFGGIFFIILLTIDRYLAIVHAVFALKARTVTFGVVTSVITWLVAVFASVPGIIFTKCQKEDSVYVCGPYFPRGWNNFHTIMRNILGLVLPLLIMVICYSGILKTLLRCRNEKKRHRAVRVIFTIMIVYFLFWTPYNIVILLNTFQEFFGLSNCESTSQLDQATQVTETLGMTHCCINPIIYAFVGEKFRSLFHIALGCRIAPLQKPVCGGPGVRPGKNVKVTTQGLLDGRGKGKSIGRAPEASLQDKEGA
T1 sequence (P51681 whole entry): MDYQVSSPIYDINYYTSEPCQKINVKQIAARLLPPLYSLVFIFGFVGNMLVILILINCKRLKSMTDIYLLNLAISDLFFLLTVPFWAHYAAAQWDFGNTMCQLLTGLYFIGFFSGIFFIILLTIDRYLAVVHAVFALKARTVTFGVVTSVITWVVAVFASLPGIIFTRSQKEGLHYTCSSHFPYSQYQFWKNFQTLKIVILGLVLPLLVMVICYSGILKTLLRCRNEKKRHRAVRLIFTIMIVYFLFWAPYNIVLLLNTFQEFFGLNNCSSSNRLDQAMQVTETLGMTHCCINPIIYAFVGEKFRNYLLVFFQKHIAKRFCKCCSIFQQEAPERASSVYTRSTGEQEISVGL
Experimental for MBCM: Mouse bone marrow cells (MBMC) were obtained from C57BL/6 mice.
Cells were immunophenotyped by adding a mix of fluorescent antibodies (anti LY-6G-PE, anti CD11b-PerCP, anti 7/4-FITC, anti F4/80-APC, anti NK-PE) and counted by FACSCalibur flow cytometry with predetermined number of beads (Polybead, carboxylate microsphere Polyscience, Inc) added to the samples. Data were analyzed with FlowJo.

As for “CKLFTGL [ECL1 (C), peptide from extracellular juxtamembranous region of CCR2]”, the “induction of chemotaxis by the peptide itself, HEK-CCR5” value with CCR5 is “did not induced chemotaxis”. For the same compound, the “cytotoxicity on HEK-CCR2” value with HEK-CCR2 [1] is “no significant cell death”. The “cytotoxicity on MBCM” value in the series on MBCM is on record as “no significant cell death”. In addition, in the series with CX3CR1, the “induction of chemotaxis by the peptide itself, HEK-CX3CR1” value is on record as “did not induced chemotaxis”. In the series with CCR2 [2], the “induction of chemotaxis by the peptide itself, HEK-CCR2” value is “did not induced chemotaxis”. The “induction of chemotaxis by the peptide itself, mouse leukocytes” value in the series on mouse monocytes is reported as “did not induced chemotaxis”.

“CCL2: chemokine, natural agonist of CCR2”: the “EC80 of CCL2 for calcium release” value with CCR2 [3] was found to be 50 nM. Moreover, the “displacement of bound [125I]-CCL2 on HEK-CCR2” value with CCR2 [4] is on record as “could displace dose-dependently”. Besides, the “displacement of the binding of CCL2-Alexa-647 with HEK-CCR2” value with CCR2 [5] is on record as “could displace dose-dependently; also recorded: displaces dose-dependently”. In addition, the “EC80 of CCL2 for β-arrestin recruitment” value in the series with CCR2 [6] is recorded as 12.5 nM.

For the compound `CC(C)C[C@@H](N)C(=O)NCC(=O)N[C@@H](C(=O)N[C@H](Cc1ccccc1)C(=O)N[C@H](CC(C)C)C(=O)N[C@H](CCCCN)C(=O)N[C@H](CS)C(=O)O)[C@H](C)O` [ECL1 (C) inverso, LGTFLKC] (H-[dL]G[dT][dF][dL][dK][dC]-OH; N-terminus and C-terminus assumed), the “cytotoxicity on HEK-CCR2” value with HEK-CCR2 [7] was “No cytotoxicity effect”.
